The target of test [1] is fusion glycoprotein (F) of the MPV used in the neutralization of Table 34 (metapneumovirus). Description: cell-based or functional assay.
Test [2] deals with RSV fusion glycoprotein (RSV-F) of the RSV used in the neutralization of Table 33 (respiratory syncytial virus, strain not stated). Kind of test: cell-based or functional assay.
Test [3] addresses MPV fusion glycoprotein with the D280N mutation (MPV-F N280) (metapneumovirus). Description: SPR; F protein loaded on streptavidin sensors, mAb in solution.
Test [4] deals with MPV fusion glycoprotein without the D280N mutation (MPV-F D280) (metapneumovirus). Described as above.
Test [5] deals with RSV fusion glycoprotein (RSV-F) (respiratory syncytial virus). The test is described as above.
Test [6] has as its target RSV fusion glycoprotein (RSV-F) (respiratory syncytial virus (strain not stated)). Kind of test: SPR; sensors loaded with RSV-F, mAb in solution (Experiment 2). (In general: In SPR one partner is held on a chip, and binding of the other changes the refractive index at the surface.)
For test [7], the target named is fusion glycoprotein of the RSV used in the neutralization assay of Example 1 (respiratory syncytial virus (strain not stated)). Kind of test: cell-based or functional assay.
Test [8] addresses fusion glycoprotein of RSV B1 BPR-348-00 (BEI NR-4052) (respiratory syncytial virus B1) (UniProt O36634). Kind of test: cell-based or functional assay.
Test [9] deals with fusion glycoprotein of RSV A2 BPR-344-00 (BEI NR-12149) (respiratory syncytial virus A2) (UniProt P03420). Kind of test: cell-based or functional assay.
The target in test [10] is RSV fusion glycoprotein (RSV-F) of RSV-A (A2) (respiratory syncytial virus A, strain A2) (UniProt P03420). Description: cell-based or functional assay.
Test [11] addresses RSV fusion glycoprotein (RSV-F) of RSV-B (B1) (respiratory syncytial virus B, strain B1) (UniProt O36634). Kind of test: cell-based or functional assay.
Test [12] has as its target RSV F A S433P-G446E (RSV A, strain A2) (UniProt P03420). Description: FACS, % binding to RSV F A variants. Background: Flow cytometry measures light scatter and fluorescence of single cells or particles in a stream.
Test [13] addresses RSV F A G446E (RSV A, strain A2) (UniProt P03420). Description: FACS, % binding to RSV F A variants.
The target of test [14] is RSV F A S433P (RSV A, strain A2) (UniProt P03420). Description: FACS, % binding to RSV F A variants.
For test [15], the target named is RSV F A N208Y-N671I (RSV A, strain A2) (UniProt P03420). Kind of test: FACS, % binding to RSV F A variants.
The target of test [16] is RSV F A S443P-K445N (RSV A, strain A2) (UniProt P03420). Kind of test: FACS, % binding to RSV F A variants.
Test [17] concerns the target RSV F A L203I (RSV A, strain A2) (UniProt P03420). Description: FACS, % binding to RSV F A variants.
The target in test [18] is RSV F A, A2 Ref (RSV A, strain A2) (UniProt P03420). Description: FACS, % binding to RSV F A variants.
The target of test [19] is RSV A fusion glycoprotein (F), virus of the neutralisation assays of Tables 54 and 57 (RSV A). Kind of test: cell-based or functional assay.
The target in test [20] is RSV F B N208S (RSV B). Kind of test: FACS, % binding to RSV F B variants.
The target of test [21] is RSV F B N208D (RSV B). Description: FACS, % binding to RSV F B variants.
In test [22] the target is RSV F B S443P (RSV B). Kind of test: FACS, % binding to RSV F B variants.
The target in test [23] is RSV F B K68N-N208S (RSV B). Description: FACS, % binding to RSV F B variants.
For test [24], the target named is RSV F B, B Ref (RSV B). Kind of test: FACS, % binding to RSV F B variants.
The target in test [25] is RSV F B N201S (RSV B). Description: FACS, % binding to RSV F B variants.
The target in test [26] is RSV F B K68N-N201S (RSV B). Kind of test: FACS, % binding to RSV F B variants.
The target in test [27] is fusion glycoprotein (F) of RSV B/9727 (respiratory syncytial virus B/9727). Description: cell-based or functional assay.
In test [28] the target is MPV fusion glycoprotein (MPV-F) of MPV-B2 (TN/96-213) (human metapneumovirus, strain TN/96-213). Kind of test: cell-based or functional assay.
The target in test [29] is RSV A Randall fusion glycoprotein (F) (RSV A, strain Randall). Kind of test: cell-based or functional assay.
In test [30] the target is fusion glycoprotein of Human Metapneumovirus-GFP CAN97-83 (Vira Tree M121) (human metapneumovirus CAN97-83) (UniProt Q6WB98). Kind of test: cell-based or functional assay.
Test [31] addresses fusion glycoprotein of Human metapneumovirus-TN/96-213 (BEI NR-22243) (human metapneumovirus TN/96-213). Description: cell-based or functional assay.
For test [32], the target named is RSV-B B9320 F protein (RSV B, strain B9320). Description: cell-based or functional assay.
Test [33] addresses MPV fusion glycoprotein (MPV-F) of MPV-A2 (CAN97-83) (human metapneumovirus, strain CAN97-83) (UniProt Q6WB98). Description: cell-based or functional assay.
For test [34], the target named is fusion glycoprotein (F) of RSV A/A2/61 (respiratory syncytial virus A/A2/61) (UniProt P03420). Description: cell-based or functional assay.
Test [35] deals with fusion glycoprotein of the MPV D280 used in the neutralization assay of Example 3 (metapneumovirus (strain not stated)). Kind of test: cell-based or functional assay.
Test [36] addresses RSV fusion glycoprotein (RSV-F), pre-fusion conformation, recombinant protein loaded on sensors (respiratory syncytial virus (RSV), strain not stated). Description: ELISA-type titration, OD 405 nm, on Pre-F.
For test [37], the target named is RSV fusion glycoprotein (RSV-F) (respiratory syncytial virus (strain not stated)). Description: SPR; sensors loaded with F protein, mAb in solution.
The target of test [38] is RSV B 9719/09 fusion glycoprotein (F) (RSV B, strain 9719/09). Description: cell-based or functional assay.

Broadly, the Kd is the equilibrium constant for the complex coming apart. The low end stands for a tighter complex, the high end for a looser complex. Broadly, the EC50 (read off the curve) is the concentration needed to bring the measured effect to its halfway point.

Chain of MPE8 (antibody) (VH): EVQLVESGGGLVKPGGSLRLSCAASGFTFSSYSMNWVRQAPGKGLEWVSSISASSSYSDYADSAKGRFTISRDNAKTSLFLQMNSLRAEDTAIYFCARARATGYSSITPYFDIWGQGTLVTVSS
Chain of MPE8 (antibody) (VL): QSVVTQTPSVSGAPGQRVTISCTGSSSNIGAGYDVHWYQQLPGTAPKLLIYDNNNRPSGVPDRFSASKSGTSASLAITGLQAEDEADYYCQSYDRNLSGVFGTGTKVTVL
Chain of palivizumab (antibody) (VH): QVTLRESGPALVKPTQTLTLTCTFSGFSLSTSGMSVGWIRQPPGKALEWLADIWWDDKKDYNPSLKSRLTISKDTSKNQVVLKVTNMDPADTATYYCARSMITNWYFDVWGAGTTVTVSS
Chain of palivizumab (antibody) (VL): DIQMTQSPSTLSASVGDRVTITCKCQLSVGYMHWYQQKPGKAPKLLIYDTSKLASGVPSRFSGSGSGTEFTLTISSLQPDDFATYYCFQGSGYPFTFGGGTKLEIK

In [1], D25-rIgG1 (antibody) gave an IC50 (ng/mL) in neutralization against MPV above 2000 ng/mL. For the same substance, the IC50 (ng/mL) in neutralization against RSV in test [2] was determined as 0.929 ng/mL.

On to MEDI8897 (antibody), for which the Kd in test [3] was determined as 100 nM; in test [4], 100 nM; in test [5], 0.001 nM; in [6] it was 0.001 nM. The RSV Neutralization - IC50 in test [7] is 0.0008 µg/mL. Besides, the RSV Neutralization by MPK44 and MPK65-v2 - IC50 in [8] was 0.0004 µg/mL; in test [9] it was 0.0002 µg/mL. Besides, the RSV and MPV Neutralization (IC50 ng/ml) in test [8] was found to be 0.447 ng/mL; in test [9], 0.208 ng/mL.

Substance “MEDI8897-rIgG1-YTE (nirsevimab) (antibody)” registered an IC50 (ng/mL) in neutralization against MPV in [1] above 2000 ng/mL. For the same substance, the Neutralization (IC50, ng/ml) in [10] worked out at 0.2 ng/mL; in test [11], 0.4 ng/mL. This substance showed an IC50 (ng/mL) in neutralization against RSV in [2] of 0.549 ng/mL.

In the case of MK-1654-rIgG1m17,1-YTE (antibody), the % binding in [12] was 1.04%; in test [13], 0.049%; in test [14] it was 7.14%; in test [15], 43.1%; in [16], 0.11%; in test [17], 62.6%. Moreover, the % binding in test [18] was found to be 83.7%; in test [20] it was 64.3%; in [21], 63.1%; in test [22], 22.6%; in test [23], 65.7%; in [24], 63.4%. Further, the % binding in [25] stood at 64.7%; in test [26], 66.7%. The IC50, neutralization of RSVA in [19] was 0.00461 µg/mL.

Turning to MPE8 (antibody), the Kd worked out at 100 nM in test [3], 2.5 nM in test [4], 0.001 nM in [5] and 0.001 nM in test [37]. In test [27], this substance yielded an RSV IC50 (ng/ml), neutralization of B/9727 of 16.9 ng/mL. The IC50 (ng/mL) in neutralization against MPV in test [1] worked out at 11 ng/mL. For the same substance, the Neutralization (IC50, ng/ml) in [28] worked out at 23.6 ng/mL; in [10], 6 ng/mL; in test [11], 3.7 ng/mL; in test [33] it was 12.6 ng/mL. This substance returned an RSV Neutralization - IC50 in [7] of 0.0153 µg/mL. This substance displayed an RSV IC50 (ng/ml), neutralization of A/Randall in [29] of 22 ng/mL. In addition, the RSV and MPV Neutralization (IC50 ng/ml) in test [30] was found to be 12.6 ng/mL; in [31], 23.6 ng/mL; in test [8], 3.71 ng/mL; in test [9] it was 6.01 ng/mL. This substance displayed an RSV IC50 (ng/ml), neutralization of B/9320 in test [32] of 3.2 ng/mL. This substance also showed an IC50 (ng/mL) in neutralization against RSV in test [2] of 12.2 ng/mL. The substance also yielded an RSV IC50 (ng/ml), neutralization of A/A2 in [34] of 126 ng/mL. For the same substance, in test [35], the MPV D280 Neutralization - IC50 stood at 0.0069 µg/mL. The EC50 (read off the curve) in test [36] amounted to 0.03 µg/mL.

For Palivizumab (antibody), the IC50, virus neutralization in test [29] turned out to be 0.122 µg/mL; in test [38], 0.0786 µg/mL.

Take palivizumab (antibody): the Kd in test [5] and in test [6] was 2.6 nM throughout. In addition, the RSV Neutralization - IC50 in test [7] was determined as 0.156 µg/mL.

The substance palivizumab-rIgG1 (antibody) returned an IC50 (ng/mL) in neutralization against MPV in test [1] above 2000 ng/mL. Besides, the IC50 (ng/mL) in neutralization against RSV in [2] was determined as 55.2 ng/mL.
